# Test results: the supplement of paper PMC5998384
# Experiments:
# HeLa Kyoto [1] = experiment: solubility in G1/S (NP-40 vs SDS abundance) (log2 ratio); higher = more soluble; conditions: cell cycle stage: G1/S
# HeLa Kyoto [2] = experiment: solubility change mitosis vs G1/S (difference of NP-40 vs SDS log2 ratios) (log2 ratio difference); higher = more soluble in mitosis
# 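Wherever solubility change mitosis vs G1/S (difference of NP-40 vs SDS log2 ratios) is given: synchronized HeLa Kyoto cells (double thymidine block for G1/S, nocodazole release for mitosis), protein amounts in NP-40 versus SDS lysates quantified by mass spectrometry, three biological replicates.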
# 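Wherever solubility in G1/S (NP-40 vs SDS abundance) is given: HeLa Kyoto cells arrested at G1/S by double thymidine block, proteins quantified by TMT10plex mass spectrometry in mild NP-40 versus SDS extracts, three biological replicates.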
Sequence,solubility in G1/S (log2) (HeLa Kyoto [1]),solubility change mitosis (log2) (HeLa Kyoto [2])
MWYHRLSHLHSRLQDLLKGGVIYPALPQPNFKSLLPLAVHWHHTASKSLTCAWQQHEDHFELKYANTVMRFDYVWLRDHCRSASCYNSKTHQRSLDTASVDLCIKPKTIRLDETTLFFTWPDGHVTKYDLNWLVKNSYEGQKQKVIQPRILWNAEIYQQAQVPSVDCQSFLETNEGLKKFLQNFLLYGIAFVENVPPTQEHTEKLAERISLIRETIYGRMWYFTSDFSRGDTAYTKLALDRHTDTTYFQEPCGIQVFHCLKHEGTGGRTLLVDGFYAAEQVLQKAPEEFELLSKVPLKHEYIEDVGECHNHMIGIGPVLNIYPWNKELYLIRYNNYDRAVINTVPYDVVHRWYTAHRTLTIELRRPENEFWVKLKPGRVLFIDNWRVLHGRECFTGYRQLCGCYLTRDDVLNTARLLGLQA [TMLHE],-0.167,0.114
MAGPLRAPLLLLAILAVALAVSPAAGSSPGKPPRLVGGPMDASVEEEGVRRALDFAVGEYNKASNDMYHSRALQVVRARKQIVAGVNYFLDVELGRTTCTKTQPNLDNCPFHDQPHLKRKAFCSFQIYAVPWQGTMTLSKSTCQDA [CST3],-0.0401,0.378
MPPGKVLQPVLKMKVDELFLYWLSEASTQRMLQDCLRRIKAPGRDQPTPGDGEQPGAWPTAPLAAPRPSGLEPPGTPGPGPALPLGAASSPRNAPHVRGTRRSAGTRVVQTRKEEPLPPATSQSIPTFYFPRGRPQDSVNVDAVISKIESTFARFPHERATMDDMGLVAKACGCPLYWKGPLFYGAGGERTGSVSVHKFVAMWRKILQNCHDDAAKFVHLLMSPGCNYLVQEDFVPFLQDVVNTHPGLSFLKEASEFHSRYITTVIQRIFYAVNRSWSGRITCAELRRSSFLQNVALLEEEADINQLTEFFSYEHFYVIYCKFWELDTDHDLLIDADDLARHNDHALSTKMIDRIFSGAVTRGRKVQKEGKISYADFVWFLISEEDKKTPTSIEYWFRCMDLDGDGALSMFELEYFYEEQCRRLDSMAIEALPFQDCLCQMLDLVKPRTEGKITLQDLKRCKLANVFFDTFFNIEKYLDHEQKEQISLLRDGDSGGPELSDWEKYAAEEYDILVAEETAGEPWEDGFEAELSPVEQKLSALRSPLAQRPFFEAPSPLGAVDLYEYACGDEDLEPL [PPP2R3B],0.0833,-0.203
MSSGLWSQEKVTSPYWEERIFYLLLQECSVTDKQTQKLLKVPKGSIGQYIQDRSVGHSRIPSAKGKKNQIGLKILEQPHAVLFVDEKDVVEINEKFTELLLAITNCEERFSLFKNRNRLSKGLQIDVGCPVKVQLRSGEEKFPGVVRFRGPLLAERTVSGIFFGVELLEEGRGQGFTDGVYQGKQLFQCDEDCGVFVALDKLELIEDDDTALESDYAGPGDTMQVELPPLEINSRVSLKVGETIESGTVIFCDVLPGKESLGYFVGVDMDNPIGNWDGRFDGVQLCSFACVESTILLHINDIIPALSESVTQERRPPKLAFMSRGVGDKGSSSHNKPKATGSTSDPGNRNRSELFYTLNGSSVDSQPQSKSKNTWYIDEVAEDPAKSLTEISTDFDRSSPPLQPPPVNSLTTENRFHSLPFSLTKMPNTNGSIGHSPLSLSAQSVMEELNTAPVQESPPLAMPPGNSHGLEVGSLAEVKENPPFYGVIRWIGQPPGLNEVLAGLELEDECAGCTDGTFRGTRYFTCALKKALFVKLKSCRPDSRFASLQPVSNQIERCNSLAFGGYLSEVVEENTPPKMEKEGLEIMIGKKKGIQGHYNSCYLDSTLFCLFAFSSVLDTVLLRPKEKNDVEYYSETQELLRTEIVNPLRIYGYVCATKIMKLRKILEKVEAASGFTSEEKDPEEFLNILFHHILRVEPLLKIRSAGQKVQDCYFYQIFMEKNEKVGVPTIQQLLEWSFINSNLKFAEAPSCLIIQMPRFGKDFKLFKKIFPSLELNITDLLEDTPRQCRICGGLAMYECRECYDDPDISAGKIKQFCKTCNTQVHLHPKRLNHKYNPVSLPKDLPDWDWRHGCIPCQNMELFAVLCIETSHYVAFVKYGKDDSAWLFFDSMADRDGGQNGFNIPQVTPCPEVGEYLKMSLEDLHSLDSRRIQGCARRLLCDAYMCMYQSPTMSLYK,0.0441,-0.178
MAAANPWDPASAPNGAGLVLGHFIASGMVNQEMLNMSKKTVSCFVNFTRLQQITNIQAEIYQKNLEIELLKLEKDTADVVHPFFLAQKCHTLQSMNNHLEAVLKEKRSLRQRLLKPMCQENLPIEAVYHRYMVHLLELAVTFIERLETHLETIRNIPHLAANLKKMNQALAKMDILVTETEELAENILKWRKQQNEVSSCIPKILAEESYLYKHDIIMPPLPFTSKVHVQTINAK [HAUS2],0.261,-0.117
MVMADGPRHLQRGPVRVGFYDIEGTLGKGNFAVVKLGRHRITKTEVAIKIIDKSQLDAVNLEKIYREVQIMKMLDHPHIIKLYQVMETKSMLYLVTEYAKNGEIFDYLANHGRLNESEARRKFWQILSAVDYCHGRKIVHRDLKAENLLLDNNMNIKIADFGFGNFFKSGELLATWCGSPPYAAPEVFEGQQYEGPQLDIWSMGVVLYVLVCGALPFDGPTLPILRQRVLEGRFRIPYFMSEDCEHLIRRMLVLDPSKRLTIAQIKEHKWMLIEVPVQRPVLYPQEQENEPSIGEFNEQVLRLMHSLGIDQQKTIESLQNKSYNHFAAIYFLLVERLKSHRSSFPVEQRLDGRQRRPSTIAEQTVAKAQTVGLPVTMHSPNMRLLRSALLPQASNVEAFSFPASGCQAEAAFMEEECVDTPKVNGCLLDPVPPVLVRKGCQSLPSNMMETSIDEGLETEGEAEEDPAHAFEAFQSTRSGQRRHTLSEVTNQLVVMPGAGKIFSMNDSPSLDSVDSEYDMGSVQRDLNFLEDNPSLKDIMLANQPSPRMTSPFISLRPTNPAMQALSSQKREVHNRSPVSFREGRRASDTSLTQGIVAFRQHLQNLARTKGILELNKVQLLYEQIGPEADPNLAPAAPQLQDLASSCPQEEVSQQQESVSTLPASVHPQLSPRQSLETQYLQHRLQKPSLLSKAQNTCQLYCKEPPRSLEQQLQEHRLQQKRLFLQKQSQLQAYFNQMQIAESSYPQPSQQLPLPRQETPPPSQQAPPFSLTQPLSPVLEPSSEQMQYSPFLSQYQEMQLQPLPSTSGPRAAPPLPTQLQQQQPPPPPPPPPPRQPGAAPAPLQFSYQTCELPSAASPAPDYPTPCQYPVDGAQQSDLTGPDCPRSPGLQEAPSSYDPLALSELPGLFDCEMLDAVDPQHNGYVLVN [SIK2],0.0463,-0.0513
MALLRRPTVSSDLENIDTGVNSKVKSHVTIRRTVLEEIGNRVTTRAAQVAKKAQNTKVPVQPTKTTNVNKQLKPTASVKPVQMEKLAPKGPSPTPEDVSMKEENLCQAFSDALLCKIEDIDNEDWENPQLCSDYVKDIYQYLRQLEVLQSINPHFLDGRDINGRMRAILVDWLVQVHSKFRLLQETLYMCVGIMDRFLQVQPVSRKKLQLVGITALLLASKYEEMFSPNIEDFVYITDNAYTSSQIREMETLILKELKFELGRPLPLHFLRRASKAGEVDVEQHTLAKYLMELTLIDYDMVHYHPSKVAAAASCLSQKVLGQGKWNLKQQYYTGYTENEVLEVMQHMAKNVVKVNENLTKFIAIKNKYASSKLLKISMIPQLNSKAVKDLASPLIGRS [CCNB2],0.241,0.0941
MPGAGARAEEGGGGGEGAAQGAAAEPGAGPAREPARLCGYLQKLSGKGPLRGYRSRWFVFDARRCYLYYFKSPQDALPLGHLDIADACFSYQGPDEAAEPGTEPPAHFQVHSAGAVTVLKAPNRQLMTYWLQELQQKRWEYCNSLDMVKWDSRTSPTPGDFPKGLVARDNTDLIYPHPNASAEKARNVLAVETVPGELVGEQAANQPAPGHPNSINFYSLKQWGNELKNSMSSFRPGRGHNDSRRTVFYTNEEWELLDPTPKDLEESIVQEEKKKLTPEGNKGVTGSGFPFDFGRNPYKGKRPLKDIIGSYKNRHSSGDPSSEGTSGSGSVSIRKPASEMQLQVQSQQEELEQLKKDLSSQKELVRLLQQTVRSSQYDKYFTSSRLCEGVPKDTLELLHQKDDQILGLTSQLERFSLEKESLQQEVRTLKSKVGELNEQLGMLMETIQAKDEVIIKLSEGEGNGPPPTVAPSSPSVVPVARDQLELDRLKDNLQGYKTQNKFLNKEILELSALRRNAERRERDLMAKYSSLEAKLCQIESKYLILLQEMKTPVCSEDQGPTREVIAQLLEDALQVESQEQPEQAFVKPHLVSEYDIYGFRTVPEDDEEEKLVAKVRALDLKTLYLTENQEVSTGVKWENYFASTVNREMMCSPELKNLIRAGIPHEHRSKVWKWCVDRHTRKFKDNTEPGHFQTLLQKALEKQNPASKQIELDLLRTLPNNKHYSCPTSEGIQKLRNVLLAFSWRNPDIGYCQGLNRLVAVALLYLEQEDAFWCLVTIVEVFMPRDYYTKTLLGSQVDQRVFRDLMSEKLPRLHGHFEQYKVDYTLITFNWFLVVFVDSVVSDILFKIWDSFLYEGPKVIFRFALALFKYKEEEILKLQDSMSIFKYLRYFTRTILDARKLISISFGDLNPFPLRQIRNRRAYHLEKVRLELTELEAIREDFLRERDTSPDKGELVSDEEEDT [TBC1D2B],-0.186,-0.0456
MVGRSRRRGAAKWAAVRAKAGPTLTDENGDDLGLPPSPGDTSYYQDQVDDFHEARSRAALAKGWNEVQSGDEEDGEEEEEEVLALDMDDEDDEDGGNAGEEEEEENADDDGGSSVQSEAEASVDPSLSWGQRKKLYYDTDYGSKSRGRQSQQEAEEEEREEEEEAQIIQRRLAQALQEDDFGVAWVEAFAKPVPQVDEAETRVVKDLAKVSVKEKLKMLRKESPELLELIEDLKVKLTEVKDELEPLLELVEQGIIPPGKGSQYLRTKYNLYLNYCSNISFYLILKARRVPAHGHPVIERLVTYRNLINKLSVVDQKLSSEIRHLLTLKDDAVKKELIPKAKSTKPKPKSVSKTSAAACAVTDLSDDSDFDEKAKLKYYKEIEDRQKLKRKKEENSTEEQALEDQNAKRAITYQIAKNRGLTPRRKKIDRNPRVKHREKFRRAKIRRRGQVREVRKEEQRYSGELSGIRAGVKKSIKLK [UTP3],-1.76,1.04
MAGYLKLVCVSFQRQGFHTVGSRCKNRTGAEHLWLTRHLRDPFVKAAKVESYRCRSAFKLLEVNERHQILRPGLRVLDCGAAPGAWSQVAVQKVNAAGTDPSSPVGFVLGVDLLHIFPLEGATFLCPADVTDPRTSQRILEVLPGRRADVILSDMAPNATGFRDLDHDRLISLCLTLLSVTPDILQPGGTFLCKTWAGSQSRRLQRRLTEEFQNVRIIKPEASRKESSEVYFLATQYHGRKGTVKQ [FTSJ2],0.00974,0.0979
